# According to patent US20160347802A1 (MAX PLANCK GESELLSCHAFT ZUR FOERDERUNG DER WISSENSCHAFTEN E …, published 2016):
# T1: human Netrin-G2, AVEXIS protein (human, UniProt Q96CW9 18-507)
# T1 construct: not shown: AVEXIS tag (bait or prey)
# T1 sequence (looked up): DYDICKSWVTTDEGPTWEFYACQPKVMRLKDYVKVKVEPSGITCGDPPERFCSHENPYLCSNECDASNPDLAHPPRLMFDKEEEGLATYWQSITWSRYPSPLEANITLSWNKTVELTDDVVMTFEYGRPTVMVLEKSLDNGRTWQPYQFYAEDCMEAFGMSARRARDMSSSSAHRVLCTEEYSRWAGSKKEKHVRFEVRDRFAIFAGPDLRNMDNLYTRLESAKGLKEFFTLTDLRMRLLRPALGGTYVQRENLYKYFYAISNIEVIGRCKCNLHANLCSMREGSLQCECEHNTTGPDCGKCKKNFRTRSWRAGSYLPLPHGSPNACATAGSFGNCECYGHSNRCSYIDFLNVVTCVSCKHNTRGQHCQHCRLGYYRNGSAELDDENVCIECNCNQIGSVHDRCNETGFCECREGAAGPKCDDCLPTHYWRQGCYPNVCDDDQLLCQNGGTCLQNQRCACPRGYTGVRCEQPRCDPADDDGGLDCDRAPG
# T2: human DRAXIN, AVEXIS prey or bait protein (human, UniProt Q8NBI3 26-349)
# T2 sequence: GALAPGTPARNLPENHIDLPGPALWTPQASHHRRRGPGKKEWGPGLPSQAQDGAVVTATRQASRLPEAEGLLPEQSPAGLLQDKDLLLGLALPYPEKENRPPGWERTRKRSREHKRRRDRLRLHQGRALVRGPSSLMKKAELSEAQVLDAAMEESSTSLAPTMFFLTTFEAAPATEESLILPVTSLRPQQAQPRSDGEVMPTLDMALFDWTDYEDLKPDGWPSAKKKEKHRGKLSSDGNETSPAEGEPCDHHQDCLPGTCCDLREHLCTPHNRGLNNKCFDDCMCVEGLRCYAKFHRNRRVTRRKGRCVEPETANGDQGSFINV
# T3: human Netrin-4, AVEXIS protein (human, UniProt Q9HB63 19-628)
# T3 construct: not shown: AVEXIS tag (bait or prey)
# T3 sequence (looked up): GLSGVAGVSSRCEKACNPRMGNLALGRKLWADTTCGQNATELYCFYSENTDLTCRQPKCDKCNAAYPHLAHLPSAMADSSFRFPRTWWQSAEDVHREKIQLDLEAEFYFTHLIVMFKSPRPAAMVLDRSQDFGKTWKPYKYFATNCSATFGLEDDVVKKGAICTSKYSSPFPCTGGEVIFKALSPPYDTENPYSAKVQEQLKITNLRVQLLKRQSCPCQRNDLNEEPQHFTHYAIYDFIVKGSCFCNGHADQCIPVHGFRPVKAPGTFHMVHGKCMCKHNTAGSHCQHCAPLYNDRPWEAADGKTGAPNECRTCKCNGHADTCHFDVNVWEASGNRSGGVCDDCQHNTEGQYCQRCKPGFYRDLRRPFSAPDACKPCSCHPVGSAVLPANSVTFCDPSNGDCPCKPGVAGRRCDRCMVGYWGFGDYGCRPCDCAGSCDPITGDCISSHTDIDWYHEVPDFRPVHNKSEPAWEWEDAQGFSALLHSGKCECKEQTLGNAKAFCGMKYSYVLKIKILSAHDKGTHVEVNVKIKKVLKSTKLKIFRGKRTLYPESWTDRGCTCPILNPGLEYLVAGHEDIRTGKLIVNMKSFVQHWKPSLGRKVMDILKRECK
# T4: human Netrin-G1, AVEXIS protein (human, UniProt Q9Y2I2 29-510)
# T4 construct: not shown: AVEXIS tag (bait or prey)
# T4 sequence (looked up): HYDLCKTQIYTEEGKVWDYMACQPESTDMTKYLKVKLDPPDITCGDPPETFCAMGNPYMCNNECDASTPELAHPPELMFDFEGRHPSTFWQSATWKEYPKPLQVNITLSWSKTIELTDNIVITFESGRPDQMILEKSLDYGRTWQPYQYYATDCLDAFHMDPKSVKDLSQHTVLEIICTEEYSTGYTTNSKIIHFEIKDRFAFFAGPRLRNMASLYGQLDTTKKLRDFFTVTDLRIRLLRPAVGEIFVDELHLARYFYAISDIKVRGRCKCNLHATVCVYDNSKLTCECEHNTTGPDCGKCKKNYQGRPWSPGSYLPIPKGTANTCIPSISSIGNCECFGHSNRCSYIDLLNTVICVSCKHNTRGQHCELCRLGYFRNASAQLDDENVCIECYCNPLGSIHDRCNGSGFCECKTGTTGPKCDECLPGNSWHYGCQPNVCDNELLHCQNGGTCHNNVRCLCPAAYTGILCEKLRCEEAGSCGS
# B1: human DRAXIN 21 amino acid Netrin binding fragment, AVEXIS prey or bait protein (peptide)
# peptide: EVMPTLDMALFDWTDYEDLKP
# notes: Tested in both bait and prey orientations; also called human 21 amino acid DRAXIN fragment; derived 21 amino acid peptide; not shown: AVEXIS tag (rat Cd4d3+4 and prey or bait module)
# B2: recombinant human Draxin (R&D systems) (ligand)
# chain: T2 sequence
# notes: Bought protein
# Key:
# [1] = target: T1, human Netrin-G2, AVEXIS protein; assay: AVEXIS, prey NTNG2 on bait DRAXIN 21aa
# Description: (§1) The Matn4-bait served as an internal prey-protein control and was used for normalization of the A486 nm values; conditioned medium (CM) serves as negative control; n=3.
# [2] = target: T2, human DRAXIN, AVEXIS prey or bait …; assay: AVEXIS, prey DRAXIN on bait DRAXIN 21aa
# Description: as §1
# [3] = target: the molecule itself; assay: AVEXIS, prey on bait DRAXIN 21aa; white = No binding
# Description: as §1
# [4] = target: T1, human Netrin-G2, AVEXIS protein; assay: AVEXIS, prey on bait NTNG2; white = No binding
# Description: as §1
# [5] = target: T3, human Netrin-4, AVEXIS protein; assay: AVEXIS, prey NTN4 on bait DRAXIN 21aa
# Description: as §1
# [6] = target: T2, human DRAXIN, AVEXIS prey or bait …; assay: AVEXIS, prey on bait DRAXIN; white = No binding
# Description: as §1
# [7] = target: T3, human Netrin-4, AVEXIS protein; assay: AVEXIS, prey on bait NTN4; white = No binding
# Description: as §1
# [8] = target: T5, human Netrin1, recombinant AVEXIS protein (biotinylated when immobilised) (human, UniProt O95631 25-604); assay: AVEXIS, prey on bait NTN1; dark = Binding
# T5 construct: also called NTN1
# Description: as §1
# [9] = target: T4, human Netrin-G1, AVEXIS protein; assay: AVEXIS, prey on bait NTNG1; white = No binding
# Description: as §1
# [10] = target: T6, biotinylated recombinant human UNC5B (human, UniProt Q8IZJ1 27-377); assay: AVEXIS, prey DRAXIN 21aa on bait UNC5B
# T6 construct: Made in HEK293-6E and immobilised on an SA chip
# Description: as §1
# [11] = target: T4, human Netrin-G1, AVEXIS protein; assay: AVEXIS, prey NTNG1 on bait DRAXIN 21aa
# Description: as §1
# [12] = target: the molecule itself; assay: AVEXIS, prey DRAXIN 21aa on bait DRAXIN 21aa
# Description: as §1
# [13] = target: T6, biotinylated recombinant human UNC5B; assay: AVEXIS, prey on bait UNC5B; white = No binding
# Description: as §1
# [14] = target: T7, Matn4 ECD, mono-biotinylated bait protein (positive control); assay: AVEXIS, prey on bait Matn4 (+), positive control for the prey; dark = Binding
# T7 construct: extracellular domain; also called Matn4-bait
# Description: as §1
# [15] = target: T5, human Netrin1, recombinant AVEXIS …; assay: SPR, Biacore 3000, biotinylated human Netrin1 on SA chip, Draxin injected at 0-18.8 nM
# Description: (§2) Surface Plasmon Resonance (SPR) experiments were performed on a Biacore 3000 (GE Healthcare) at 25° C. using a SA sensor chip in 0.01 M HEPES, pH 7.4, 0.15 M NaCl, 0.005% Surfactant P20 (HBS-P) running buffer at a flow rate of 30 μl/min. The instrument was used according to manufacturer's instructions.
# [16] = target: T6, biotinylated recombinant human UNC5B; assay: SPR, UNC5B immobilised, Draxin injected at 0 to 18.75nM
# Description: as §2
Binder,binding result [1],binding result [2],A486nm [3],A486nm [4],binding result [5],A486nm [6],A486nm [7],A486nm [8],A486nm [9],binding result [10],binding result [11],binding result [12],A486nm [13],A486nm [14],Kd [15] [nM],binding result [16]
B1,no binding,no binding,0.059,0.062,no binding,0.063,0.063,0.342,0.066,no binding,no binding,no binding,0.062,0.252,,
B2,,,,,,,,,,,,,,,20 to 100,no binding (tested: 18.75 nM)
